From US20050043234A1

Target: zFGF5 (human) (UniProt O76093)
Test: cell-based or functional assay

Sequence of zFGF5 (human) (O76093 28-207): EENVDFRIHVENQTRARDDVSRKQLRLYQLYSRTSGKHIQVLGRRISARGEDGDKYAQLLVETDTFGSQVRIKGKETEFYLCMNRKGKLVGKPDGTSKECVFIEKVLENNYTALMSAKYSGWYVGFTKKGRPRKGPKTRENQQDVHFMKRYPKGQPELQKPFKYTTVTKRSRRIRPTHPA

“FGFR2α-IIIb/Fc (from UniProt P21802 22-378) (Fc fusion)” showed a Cell Proliferation (percent of control), BAF3/FGFR3α-IIIc cells with zFGF5, soluble receptor at 0 fold-excess (percent of control) of 100, a Cell Proliferation (percent of control), BAF3/FGFR3α-IIIc cells with zFGF5, soluble receptor at 62.5 fold-excess (percent of control) of 101 and a Cell Proliferation (percent of control), BAF3/FGFR3α-IIIc cells with zFGF5, soluble receptor at 125 fold-excess (percent of control) of 90. The Cell Proliferation (percent of control), BAF3/FGFR3α-IIIc cells with zFGF5, soluble receptor at 250 fold-excess (percent of control) was 91, the Cell Proliferation (percent of control), BAF3/FGFR3α-IIIc cells with zFGF5, soluble receptor at 500 fold-excess (percent of control) was 101 and the Cell Proliferation (percent of control), BAF3/FGFR3α-IIIc cells with zFGF5, soluble receptor at 1000 fold-excess (percent of control) was 99.
